Measured values published in ChEMBL document CHEMBL1156055, “Synthetic substrate for application in both high and low throughput assays for botulinum neurotoxin B protease inhibitors” (Bioorg Med Chem Lett, 2009).

Substrate: COc1ccc2c(CC(=O)NCCCC[C@H](NC(=O)CNC(=O)[C@H](C)NC(=O)[C@H](CCC(N)=O)NC(=O)[C@H](CC(C)C)NC(=O)[C@H](C)NC(=O)[C@H](CC(=O)O)NC(=O)[C@H](C)NC(=O)[C@H](CCCNC(=N)N)NC(=O)[C@H](CC(=O)O)NC(=O)[C@H](CC(=O)O)NC(=O)[C@H](CC(C)C)NC(=O)[C@H](CCC(=O)O)NC(=O)[C@H](CO)NC(=O)[C@H](CC(C)C)NC(=O)[C@H](CCCCN)NC(=O)[C@H](CCC(N)=O)NC(=O)[C@H](CC(=O)O)NC(=O)[C@H](CCCNC(=N)N)NC(=O)[C@H](CCC(=O)O)NC(C)=O)C(=O)N[C@@H](CO)C(=O)N[C@@H](CCC(N)=O)C(=O)N[C@@H](CNc3ccc([N+](=O)[O-])cc3[N+](=O)[O-])C(=O)N[C@@H](CCC(=O)O)C(=O)N[C@@H](CO)C(=O)N[C@@H](CO)C(=O)N[C@@H](C)C(=O)N[C@@H](C)C(=O)N[C@@H](CCCCN)C(=O)N[C@@H](CC(C)C)C(=O)N[C@@H](CCCCN)C(=O)N[C@@H](CCCNC(=N)N)C(=O)N[C@@H](CCCCN)C(=O)N[C@@H](Cc3ccc(O)cc3)C(=O)N[C@@H](Cc3c[nH]c4ccccc34)C(=O)N[C@@H](Cc3c[nH]c4ccccc34)C(=O)N[C@@H](CCCCN)C(=O)N[C@@H](CC(N)=O)C(=O)N[C@@H](CC(C)C)C(=O)N[C@@H](CCCCN)C(N)=O)cc(=O)oc2c1
Assay: Activity at Clostridium botulinum BoNT/B protease

B1: Botulinum neurotoxin type B (Clostridium botulinum), P10844 (protein)
chain: MPVTINNFNYNDPIDNNNIIMMEPPFARGTGRYYKAFKITDRIWIIPERYTFGYKPEDFNKSSGIFNRDVCEYYDPDYLNTNDKKNIFLQTMIKLFNRIKSKPLGEKLLEMIINGIPYLGDRRVPLEEFNTNIASVTVNKLISNPGEVERKKGIFANLIIFGPGPVLNENETIDIGIQNHFASREGFGGIMQMKFCPEYVSVFNNVQENKGASIFNRRGYFSDPALILMHELIHVLHGLYGIKVDDLPIVPNEKKFFMQSTDAIQAEELYTFGGQDPSIITPSTDKSIYDKVLQNFRGIVDRLNKVLVCISDPNININIYKNKFKDKYKFVEDSEGKYSIDVESFDKLYKSLMFGFTETNIAENYKIKTRASYFSDSLPPVKIKNLLDNEIYTIEEGFNISDKDMEKEYRGQNKAINKQAYEEISKEHLAVYKIQMCKSVKAPGICIDVDNEDLFFIADKNSFSDDLSKNERIEYNTQSNYIENDFPINELILDTDLISKIELPSENTESLTDFNVDVPVYEKQPAIKKIFTDENTIFQYLYSQTFPLDIRDISLTSSFDDALLFSNKVYSFFSMDYIKTANKVVEAGLFAGWVKQIVNDFVIEANKSNTMDKIADISLIVPYIGLALNVGNETAKGNFENAFEIAGASILLEFIPELLIPVVGAFLLESYIDNKNKIIKTIDNALTKRNEKWSDMYGLIVAQWLSTVNTQFYTIKEGMYKALNYQAQALEEIIKYRYNIYSEKEKSNINIDFNDINSKLNEGINQAIDNINNFINGCSVSYLMKKMIPLAVEKLLDFDNTLKKNLLNYIDENKLYLIGSAEYEKSKVNKYLKTIMPFDLSIYTNDTILIEMFNKYNSEILNNIILNLRYKDNNLIDLSGYGAKVEVYDGVELNDKNQFKLTSSANSKIRVTQNQNIIFNSVFLDFSVSFWIRIPKYKNDGIQNYIHNEYTIINCMKNNSGWKISIRGNRIIWTLIDINGKTKSVFFEYNIREDISEYINRWFFVTITNNLNNAKIYINGKLESNTDIKDIREVIANGEIIFKLDGDIDRTQFIWMKYFSIFNTELSQSNIEERYKIQSYSEYLKDFWGNPLMYNKEYYMFNAGNKNSYIKLKKDSPVGEILTRSKYNQNSKYINYRDLYIGEKFIIRRKSNSQSINDDIVRKEDYIYLDFFNLNQEWRVYTYKYFKKEEEKLFLAPISDSDEFYNTIQIKEYDEQPTYSCQLLFKKDEESTDEIGLIGIHRFYESGIVFEEYKDYFCISKWYLKEVKRKPYNLKLGCNWQFIPKDEGWTE
Km: 70.9 µM | kcat: 3.81 s⁻¹
